Experimental data: US7090842

Key:
[1] = molecular target: mouse anti-CEA monoclonal antibody 8019; experiment: competition RIA, labeled Ab2 (3H1) bound to 8019-coated plates with 0.125 µg unlabeled 3H1
[2] = molecular target: mouse anti-CEA monoclonal antibody 8019; experiment: plate RIA, inhibition of radiolabeled 8019 binding to semipurified CEA, 25 ng 3H1
[3] = molecular target: mouse anti-CEA monoclonal antibody 8019; experiment: RIA, labeled Ab2 (3H1) on 8019-coated plates, no inhibitor
[4] = molecular target: mouse anti-CEA monoclonal antibody 8019; experiment: competition RIA, labeled Ab2 (3H1) on 8019-coated plates, 250 ng unlabeled 3H1
[5] = molecular target: mouse anti-CEA monoclonal antibody 8019; experiment: competition RIA, labeled Ab2 (3H1) on 8019-coated plates with 0.125 µg unlabeled 3H1
[6] = molecular target: mouse anti-CEA monoclonal antibody 8019; experiment: competition: Ab2 blocks binding of 8019 to CEA on MCF-7 cells

B1: monoclonal anti-idiotype antibody 3H1 (antibody, V domains shown)
VH: EVQLQQSGPELVKPGASLKISCEASGYSLTAYTMNWVKQSHGKSLEWVGLINPFSGDTNYSQKFTGKATLTVDRSSSTAYMELLSLTSEDSAVYYCVITPVPYWYFDVWGAGTTVTVSS
VL: DIKMTQSPSSMYASLGERVTITCKASQDINGYLNWFQQEPGKSPKTLIYRANRLIDGVPSRFSGSGSGQVYSLTISSLEYEDMGTYYCLQFDEFPWMFGGGTKLEIK
[1]
  cpm Bound: 439 cpm
[2]
  percent inhibition: 100%
[3]
  cpm Bound: 12000 cpm
[4]
  percent inhibition: > 90%
[5]
  percent inhibition: 97%
[6]
  percent inhibition: > 85%
